T1: Mcl-1, Q07820
T1 chain: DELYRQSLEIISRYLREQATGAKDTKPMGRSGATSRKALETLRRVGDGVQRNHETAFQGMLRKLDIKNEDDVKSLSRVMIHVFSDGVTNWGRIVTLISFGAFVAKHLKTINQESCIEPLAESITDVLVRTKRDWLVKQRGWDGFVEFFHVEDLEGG


Key:
Bcl-xL, Q07817 = test: peptide SPOT array, c-Myc-tagged receptor at 1 uM or 100 nM, anti-c-Myc-Cy3
Mcl-1, Q07820 = molecular target: T1, Mcl-1, Q07820; test: as above

Bcl-xL, Q07817, sequence (Q07817 1-209): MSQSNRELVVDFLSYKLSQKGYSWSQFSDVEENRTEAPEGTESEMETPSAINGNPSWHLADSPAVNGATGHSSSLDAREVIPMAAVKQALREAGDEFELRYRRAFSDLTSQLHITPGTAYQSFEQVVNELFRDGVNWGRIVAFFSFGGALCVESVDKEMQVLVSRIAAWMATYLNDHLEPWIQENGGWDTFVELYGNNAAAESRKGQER

| Binder | SPOT signal as a fraction of Bim BH3's signal on the same receptor and array (Bcl-xL, Q07817) | SPOT signal as a fraction of Bim BH3's signal on the same receptor and array (Mcl-1, Q07820) |
| --- | --- | --- |
| CILNSFYGYVDRKGARWYSMEMAGIV [POLE] | 0.09 | 0.1 |
| EKVLIFGGDILKFAGDALLALWRVER [ADCY10] | 0.04 | 0.02 |
| RDPQGWVAGNLSARLDGAAGFTLPGF [MST1R] | 0.02 | 0.02 |
| ALKKADVGFAMGIALTDVAKEASDII [ATP2B1] | 0.02 | 0.01 |
| CALIAGATLHDAWLGDSQVILVQQGQ | 0.02 | 0.01 |
| HPRKESQVRQDAWVGDGVWVSIRLDS [SPAG9] | 0.02 | 0.02 |
| AALFLHAGCQDLTAGEDGKVQVWSGS [TEP1] | 0.02 | 0.02 |
| AFTEREASEIMKSILEAIQYLHSINI | 0.02 | 0.01 |
| CGDLASLSIDDWTLGEEVDGRRLVVA [BIRC6] | 0.02 | 0.02 |
| QLSKPGAALYLQSILEGFKEAVQYVL [SOS1] | 0.03 | 0.03 |
| FRFAQLCGLHDVIHADELEELMCYYQ [CLTCL1] | 0.02 | 0.02 |
| VEQFSEASQQDAELSEVLVLRLENYE | 0.02 | 0.02 |
| AKFLLYLGHSLSTWGDRMWHFAVSVF [SLC40A1] | 0.1 | 0.07 |
| ISDVQVFGYSLRFNADLLRSAVQQVN [DBC1] | 0.02 | 0.02 |
| RGAMLSLATGLAHSGSDLSLLVPEIE [FAM115A] | 0.09 | 0.06 |
| SALETQVAAAVQALLDDYLAQLSLEP [TRO] | 0.02 | 0.02 |
| KNIAGALAFWMANALELLNFIKQDRD [MLLT4] | 0.03 | 0.02 |
| IVGGCVVGIAMARFADFIRGMLKLIL [DIRC2] | 0.25 | 0.18 |
| DEHISYVATKDCHLGDQLEGVNTPRQ | 0.02 | 0.01 |
| KLPVVGIGKHDCGMATDLALRCLVET [CCDC76] | 0.01 | 0.01 |
| DEHISYVATKVCHLLDQLEGVNTPRQ | 0.02 | 0.02 |

| Binder | SPOT signal as a fraction of Bim BH3's signal on the same receptor and array (Bcl-xL, Q07817) | SPOT signal as a fraction of Bim BH3's signal on the same receptor and array (Mcl-1, Q07820) |
| --- | --- | --- |
| HPRRESQVRQLAWIGDGVWVSIRLDS | 0.03 | 0.02 |
| GKPETCTGQDLADLGDRLRDWFQLLH [SPOCK2] | 0.02 | 0.01 |
| VILADPDGHEDCFVGDEAFRELSKMD [GLOD4] | 0.01 | 0.01 |
| CALIAGATLHVAWLGDSQVILVQQGQ | 0.02 | 0.01 |
| QQMHHNAATADAQRADMLRGLSPRES [NCOR2] | 0.02 | 0.01 |
| LSPGRSVTAGDIIVGDEILKGHTQDT [FLAD1] | 0.01 | 0.01 |
| SVRYYPSGDADASGSDDATCRLYDLR | 0.01 | 0.01 |
| VEQFSEASQQMAELSEVLVLRLENYE | 0.02 | 0.02 |
| PSLSKELTSSLAGVLDVSFDSDSQFP [CRTC1] | 0.02 | 0.01 |
| LGLGELAGLTVANEADSLTYDIANNK [STRN] | 0.02 | 0.01 |
| SRQPRDFGDSDARGGKGFLRGVVGGV [VPS13C] | 0.48 | 0.17 |
| GLFSATSGVDLKYVLDTFGQEVRPVS [DDX7] | 0.02 | 0.02 |
| RLAHEHHCLRIKILGDCYYCVSGLPE [ADCY8] | 0.03 | 0.02 |
| PPDAHVLGKALEAALQDFSLDLRSTG [CIITA] | 0.01 | 0.02 |
| VDFYQPTCIVDQCGADSLGCDRLGCF [HDAC3] | 0.01 | 0.01 |
| SVRYYPSGDAFASGSDDATCRLYDLR | 0.02 | 0.02 |
| LRCEMASTGEVACFLEGIHTAFLKAM [CPS1] | 0.02 | 0.03 |
| AFTEREASEIDKSIGEAIQYLHSINI | 0.02 | 0.02 |
| HPRRESQVRQLAWILDGVWVSIRLDS | 0.03 | 0.03 |
| RVSWNITGTVLASSGDDGCVRLWKAN [SEH1L] | 0.3 | 0.08 |

From PMC4072508, “Genome-Wide Prediction and Validation of Peptides That Bind Human Prosurvival Bcl-2 Proteins” (PLoS Computational Biology, 2014)
